According to patent publication US20240239901A1:

Legend:
[1] = biological target: human purified airway mucins (purified from induced sputum of five asthmatic donors, pooled); assay: plate binding assay: purified mucins coated, FLAG-ITLN-1 with heparin (150 pg/mL as printed) in the binding buffer
[2] = biological target: human purified airway mucins (purified from induced sputum of five asthmatic donors, pooled); assay: plate binding assay: purified mucins coated, FLAG-ITLN-1 with dextran sulfate (150 pg/mL as printed) in the binding buffer

percent decrease of binding in the presence of heparin [1]: 51.9% | percent decrease of binding in the presence of dextran sulfate [2]: 74%
Substance: FLAG-tagged recombinant ITLN-1 (Sigma, SRP8047) (from UniProt Q8WWA0 19-298) (ligand)
